The subject of data set [1] is T1, APG07433.1 (Bacillus sp.).
T1 sequence: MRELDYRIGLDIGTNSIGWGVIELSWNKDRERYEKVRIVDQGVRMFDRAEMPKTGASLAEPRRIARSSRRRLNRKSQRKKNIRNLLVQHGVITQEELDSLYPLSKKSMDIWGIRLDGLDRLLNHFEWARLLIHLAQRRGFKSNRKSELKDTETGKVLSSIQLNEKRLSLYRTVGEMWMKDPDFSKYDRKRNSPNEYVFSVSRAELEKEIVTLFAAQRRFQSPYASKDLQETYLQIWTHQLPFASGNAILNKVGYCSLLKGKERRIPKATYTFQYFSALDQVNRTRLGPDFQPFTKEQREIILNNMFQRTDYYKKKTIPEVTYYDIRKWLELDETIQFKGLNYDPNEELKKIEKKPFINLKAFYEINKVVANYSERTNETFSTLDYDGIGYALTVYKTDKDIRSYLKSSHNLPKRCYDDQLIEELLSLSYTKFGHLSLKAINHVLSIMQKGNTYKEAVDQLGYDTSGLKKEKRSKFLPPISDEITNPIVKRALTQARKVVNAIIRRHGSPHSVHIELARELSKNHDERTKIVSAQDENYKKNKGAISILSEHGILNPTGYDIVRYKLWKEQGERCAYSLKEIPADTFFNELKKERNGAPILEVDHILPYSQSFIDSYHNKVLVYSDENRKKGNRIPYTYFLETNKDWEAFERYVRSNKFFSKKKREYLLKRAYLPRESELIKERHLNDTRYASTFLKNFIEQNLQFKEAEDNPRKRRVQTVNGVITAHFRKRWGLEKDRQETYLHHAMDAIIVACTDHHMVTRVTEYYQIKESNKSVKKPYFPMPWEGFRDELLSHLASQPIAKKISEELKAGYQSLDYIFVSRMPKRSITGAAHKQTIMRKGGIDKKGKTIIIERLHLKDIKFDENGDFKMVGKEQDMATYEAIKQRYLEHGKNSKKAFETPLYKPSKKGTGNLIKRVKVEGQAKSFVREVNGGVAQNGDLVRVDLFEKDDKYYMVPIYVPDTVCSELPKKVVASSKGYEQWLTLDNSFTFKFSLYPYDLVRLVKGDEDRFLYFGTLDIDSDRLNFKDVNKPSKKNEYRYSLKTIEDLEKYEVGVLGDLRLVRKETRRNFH
As to the kind of experiment: cleavage_in_vitro. Conditions: PAM NNNNCC; NTS cut 4, TS cut 3, 1 nt 5' overhang (Table 3).

In another data set the target is T2, APG07433.1 (Bacillus sp.).
T2 chain: T1 sequence
The data set is described as follows: cell_activity; HEK293T; PAM NNNNCC. Particulars: tags: human cells: N-term SV40 NLS and 3xFLAG, C-term nucleoplasmin NLS. On the procedure:
The constructs described above were introduced into mammalian cells. One day prior to transfection, 1×10⁵ HEK293T cells/well (Sigma) were plated in 24-well dishes in Dulbecco's modified Eagle medium (DMEM) plus 10% (vol/vol) fetal bovine serum (Gibco) and 1% Penicillin-Streptomycin (Gibco). The next day when the cells were at 50-60% confluency, 500 ng of a RGN expression plasmid plus 500 ng of a single gRNA expression plasmid were co-transfected using […] of Lipofectamine 3000 (Thermo Scientific) per well, following the manufacturer's instructions. After 48 hours of growth, total genomic DNA was harvested using a genomic DNA isolation kit (Machery-Nagel) according to the manufacturer's instructions.
Additionally, products from PCR #2 containing Illumina overhang sequences underwent library preparation following the Illumina 16S Metagenomic Sequencing Library protocol. Deep sequencing was performed on an Illumina Mi-Seq platform by a service provider (MOGene). Typically 200,000 of 250 bp paired-end reads (2×100,000 reads) are generated per amplicon. The reads were analyzed using CRISPResso (Pinello, et al. 2016 Nature Biotech, 34:695-697) to calculate the rates of editing. Output alignments were hand-curated to confirm insertion and deletion sites as well as identify microhomology sites at the recombination sites. All experiments were performed in human cells. The “target sequence” is the targeted sequence within the gene target. For each target sequence, the guide RNA comprised the complementary RNA target sequence and the appropriate sgRNA depending on the RGN used.

For the molecule “GAGCGGACAGCAGCUUCCUAUAUCUCGUACNNNNNNNNNNNNNNNNNNNNNNNNNGUCAUAGUUCCAUUAAAGCCAAAAGUGGCUUUGAUGUUUCUAUGAUAAGGGUUUCGACCCGUGGCGUCGGGGAUCGCCUGCCCAUUGAAAUGGGCUUCUCCCCAUUUAUU / GAGCGGACAGCAGCTTCCTATATCTCGTAC / GTACGAGATATAGGAAGCTGCTGTCCGCTC [Sequence 1 sgRNA for APG07433.1 ; Sequence 1 target]”, the activity in data set [1] turned out to be 86 % cleaved.

B1: Guide 173 ; HPRT1 target of guide 173 (ssRNA ; dsDNA)
RNA: CUUCUAUAGCCUCCUUCCCCGUCAUAGUUCCAUUAAAGCCAAAAGUGGCUUUGAUGUUUCUAUGAUAAGGGUUUCGACCCGUGGCGUCGGGGAUCGCCUGCCCAUUGAAAUGGGCUUCUCCCCAUUUAUU
DNA 1: CTTCTATAGCCTCCTTCCCC
DNA 2: GGGGAAGGAGGCTATAGAAG
With B1, the activity with APG07433.1 was determined as 26.6 % editing.

The record behind these values is patent publication US20250283117, “RNA-GUIDED NUCLEASES AND ACTIVE FRAGMENTS AND VARIANTS THEREOF AND METHODS OF USE” (Life Edit Therapeutics, Inc., published 2025).
